{"source": "paper PMC4910529", "about": "(The EMBO Journal, 2016)", "molecules": {"B1": {"name": "SPOP^28–359 (speckle‐type POZ protein, residues 28–359) (domain or fragment)", "chain": "KVVKFSYMWTINNFSFCREEMGEVIKSSTFSSGANDKLKWCLRVNPKGLDEESKDYLSLYLLLVSCPKSEVRAKFKFSILNAKGEETKAMESQRAYRFVQGKDWGFKKFIRRDFLLDEANGLLPDDKLTLFCEVSVVQDSVNISGQNTMNMVKVPECRLADELGGLWENSRFTDCCLCVAGQEFQAHKAILAARSPVFSAMFEHEMEESKKNRVEINDVEPEVFKEMMCFIYTGKAPNLDKMADDLLAAADKYALERLKVMCEDALCSNLSVENAAEILILADLHSADQLKTQAVDFINYHASDVLETSGWKSMVVSHPHLVAEAYRSLASA"}, "B2": {"name": "SPOP mutBACK (SPOP 28–359 Y353E) (domain or fragment)", "chain": "B1 chain with Y326E"}, "B3": {"name": "SPOP ΔBACK (domain or fragment)", "chain": "KVVKFSYMWTINNFSFCREEMGEVIKSSTFSSGANDKLKWCLRVNPKGLDEESKDYLSLYLLLVSCPKSEVRAKFKFSILNAKGEETKAMESQRAYRFVQGKDWGFKKFIRRDFLLDEANGLLPDDKLTLFCEVSVVQDSVNISGQNTMNMVKVPECRLADELGGLWENSRFTDCCLCVAGQEFQAHKAILAARSPVFSAMFEHEMEESKKNRVEINDVEPEVFKEMMCFIYTGKAPNLDKMADDLLAAADKYALERLKVMCEDALCSNLSVENAAEILILADLHSADQLKTQAVDFINYHASDVLETSG"}}, "key": {"[1]": {"molecular_target": "SPOP mutBTB (SPOP 28–359 L186D L190D L193D I217K) (UniProt O43791)", "assay": "AUC"}, "[2]": {"molecular_target": "SPOP mutBTB (SPOP 28–359 L186D L190D L193D I217K) (UniProt O43791)", "assay": "CG-MALS"}, "SPOP X‐BACK": {"molecular_target": "SPOP X‐BACK", "assay": "CG-MALS"}, "[3]": {"molecular_target": "SPOP mutBACK (SPOP 28–359 Y353E) (UniProt O43791)", "assay": "CG-MALS"}, "[4]": {"molecular_target": "SPOP mutBACK (SPOP 28–359 Y353E) (UniProt O43791)", "assay": "cross-linking"}, "native MS": {"molecular_target": "the molecule itself", "assay": "native MS"}, "CG-MALS": {"molecular_target": "the molecule itself", "assay": "CG-MALS"}, "[5]": {"molecular_target": "B2", "assay": "fluorescence polarisation"}, "[6]": {"molecular_target": "B1", "assay": "SEC"}, "cross-linking": {"molecular_target": "the molecule itself", "assay": "cross-linking"}}, "note": "Numbering of substitutions follows the chain as printed. Names may count otherwise. Where no end group is shown, it is not given here."}
{"molecule": "SPOP mutBTB (SPOP 28–359 L186D L190D L193D I217K) (from UniProt O43791 28-359) (domain or fragment)", "values": [{"measurement": "Kd", "setting": "[1]", "result": 32.5, "unit": "µM"}, {"measurement": "Kd", "setting": "[2]", "result": 36, "unit": "µM"}, {"measurement": "stoichiometry N", "setting": "[2]", "result": 2}]}
{"molecule": "SPOP X‐BACK", "values": [{"measurement": "Kd", "setting": "SPOP X‐BACK", "result": 118, "unit": "µM"}]}
{"molecule": "SPOP mutBACK (SPOP 28–359 Y353E) (from UniProt O43791 28-359) (domain or fragment)", "values": [{"measurement": "stoichiometry N", "setting": "[3]", "result": 2}, {"measurement": "stoichiometry N", "setting": "[4]", "result": 2}]}
{"molecule": "B1", "values": [{"measurement": "stoichiometry N", "setting": "native MS", "result": 8}, {"measurement": "Kd", "setting": "CG-MALS", "result": 2.4, "unit": "µM"}]}
{"molecule": "ENLACDEVTSTTSSSST-NH2 (not fully specified (N-terminus))", "note": "[Puc peptide, residues 91–107 of Puckered, fluorescein-labelled]", "values": [{"measurement": "Kd", "setting": "[5]", "result": 4.1, "unit": "µM"}]}
{"molecule": "B2", "values": [{"measurement": "binding result", "setting": "[6]", "result": "binds"}]}
{"molecule": "B3", "values": [{"measurement": "stoichiometry N", "setting": "cross-linking", "result": 2}]}
